For data set [1], the target named is affinity purified BACE1 (BACE1-myc, wild type), P56817.
The target in data set [2] is BACE1Arg (Lys-to-Arg mutant form of BACE1), P56817.
Sequence of BACE1Arg (Lys-to-Arg mutant form of BACE1), P56817 (P56817 other isoform, or with tags, fused parts or gaps mutant): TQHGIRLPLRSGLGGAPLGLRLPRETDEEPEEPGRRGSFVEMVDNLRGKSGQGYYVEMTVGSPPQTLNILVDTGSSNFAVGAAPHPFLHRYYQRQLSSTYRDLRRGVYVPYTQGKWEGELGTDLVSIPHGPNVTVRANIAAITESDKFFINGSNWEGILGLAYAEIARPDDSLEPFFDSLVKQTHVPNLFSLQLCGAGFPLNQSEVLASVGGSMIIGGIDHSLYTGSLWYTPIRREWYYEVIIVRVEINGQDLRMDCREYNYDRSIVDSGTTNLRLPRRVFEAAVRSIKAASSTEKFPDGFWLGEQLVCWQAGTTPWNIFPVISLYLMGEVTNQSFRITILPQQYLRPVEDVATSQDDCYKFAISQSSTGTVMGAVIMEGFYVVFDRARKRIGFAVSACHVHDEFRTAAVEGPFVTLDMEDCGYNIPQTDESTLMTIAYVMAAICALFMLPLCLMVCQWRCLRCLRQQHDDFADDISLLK

Sequence of affinity purified BACE1 (BACE1-myc, wild type), P56817 (P56817 22-501): as the sequence (P56817 other isoform, or with tags, fused parts or gaps mutant) above, with R105K, R254K, R258K, R264K, R278K, R279K, R286K counted along it

B1: ATase2 (acetyltransferase 2) with a myc tag at the C-terminus (protein)
chain: MAPCHIRKYQESDRQWVVGLLSRGMAEHAPATFRQLLKLPRTLILLLGGPLALLLVSGSWLLALVFSISLFPALWFLAKKPWTEYVDMTLCTDMSDITKSYLSERGSCFWVAESEEKVVGMVGALPVDDPTLREKRLQLFHLFVDSEHRRQGIAKALVRTVLQFARDQGYSEVILDTGTIQLSAMALYQSMGFKKTGQSFFCVWARLVALHTVHFIYHLPSSKVGSL
With B1, in data set [1], the “acetylation of BACE1 with non-radiolabeled acetylCoA, Western blot with anti-acetylated lysine” value is “there was a marked increase in the acetylation of both the immature and partially-mature forms of BACE1”.

B2: ATase1 (acetyltransferase 1) with a myc tag at the C-terminus (protein)
chain: MAPYHIRKYQESDRKSVVGLLSRGMAEHAPATFRRLLKLPRTLILLLGGALALLLVSGSWILALVFSLSLLPALWFLAKKPWTRYVDIALRTDMSDITKSYLSECGSCFWVGESEEKVVGTVGALPVDDPTLREKRLQLFHLSVDNEHRGQGIAKALVRTVLQFARDQGYSEVVLDTSNIQLSAMGLYQSLGFKKTGQSFFHVWARLVDLHTVHFIYHLPSAQAGRL
In the case of B2, in data set [1], the “acetylation of BACE1 with non-radiolabeled acetylCoA, Western blot with anti-acetylated lysine” value is reported as “clearly indicate that ATase1 can acetylate BACE1”; the “acetyltransferase activity of ERGIC fractions (acceptor: affinity purified BACE1)” value is reported as “ERGIC fractions from ATase1-expressing cells displayed increased (~2-fold) acetyltransferase activity”; the “average cpm/assay ([3H]acetyl incorporated into BACE1)” value is recorded as “The average cpm/assay for ATase1 was 1737±486”; the “in vitro acetylation of BACE1 with [3H]acetylCoA, scintillation counting” value is reported as “purified ATase1 was able to acetylate BACE1WT but not BACE1Arg”. Moreover, the “in vitro acetylation of BACE1 with [3H]acetylCoA, scintillation counting” value in data set [2] is given as “purified ATase1 was able to acetylate BACE1WT but not BACE1Arg”.

The record behind these values is patent US20090136977.
